{"source": "patent US8598315B2", "about": "“Protein transduction domains derived from secretory leukocyte protease inhibitor” (Research Foundation of City University of New York, priority 2007, dated 2013)", "molecules": {"B1": {"name": "SLPI: recombinant human secretory leukocyte protease inhibitor (R&D Systems), 107 amino acid polypeptide, SEQ ID NO: 1 (protein, listed as Homo sapiens)", "chain": "SGKSFKAGVCPPKKSAQCLRYKKPECQSDWQCPGKKRCCPDTCGIKCLDPVDTPNPTRRKPGKCPVTYGQCLMLNPPNFCEMDGQCKRDLKCCMGMCGKSCVSPVKA"}, "B2": {"name": "fSLPI: SLPI labeled with fluorescein using a Fluorescein-EX protein labeling kit (protein, UniProt P03973 26-132, looked up)", "Antileukoproteinase": "B1 chain", "modifications": "fluorescein label", "notes": "SLPI labeled with fluorescein using a Fluorescein-EX protein labeling kit"}}, "key": {"[1]": {"test_system": "retinal ganglion cell layer of the retina", "assay": "SLPI-derived PTD injected into adult eye (Example 8, expected result)", "settings": "adult rats, injected into the eyes, 4 hours", "quoted_text": "To analyze the transduction characteristics of SLPI11-25 in vivo, fSLPI11-25 is injected into the eyes of adult rats."}, "[2]": {"test_system": "retinal ganglion cell layer of the retina", "assay": "Internalization in vivo after injection into the vitreous chamber of the eye", "settings": "adult rats, 5 μl of 1 μg/μl into vitreous chamber, 4 hours", "quoted_text": "To analyze the transduction characteristics of SLPI in vivo, fSLPI was injected into the eyes of adult rats. Long-Evans rats (200-250 g) were anesthetized with 2.5% isofluorane and 5 μl of fSLPI (1 μg/μl) or unconjugated fluorescein was injected into the vitreous chamber of the right eye using a glass micropipette (1 μm diameter) attached to a microsyringe pump. 4 hours later, the animals were sacrificed by transcardial perfusion with 4% paraformaldehyde. Following removal of the cornea and lens, the eyes were dissected out and post-fixed in 4% paraformaldehyde for 48 hours. Tissues were then cryoprotected in 30% sucrose in phosphate-buffered saline (PBS) for an additional 48 hours. Tissues were sectioned sagitally at 30 μm on a cryostat and thaw-mounted onto gelatin-coated slides."}, "[3]": {"test_system": "Chinese hamster ovary (CHO) cells", "assay": "Presence in the underlying CHO cell monolayer at 4° C.", "assay_type": "cell-based", "settings": "10 μg/ml, 4 hours", "description": "(§1) For these experiments, monolayers of Chinese hamster ovary (CHO) cells were prepared by plating 75,000 cells into the wells of 8-well chamber slides coated with 20 μg/ml PDL and 10 μg/ml fibronectin (Mukhopadhyay et al., 1994, supra). These cells were incubated overnight at 37° C. to allow the monolayers to form. P6 DRG neurons were then isolated, plated on the monolayers in SATO culture medium, and incubated for an additional 16 hours. This approach was used because of the harsh conditions used in these experiments. Neurons would likely fail to adhere to the slides if plated directly onto PDL and incubated at 4° C., and so, we enhanced adhesion by plating the neurons on CHO cell monolayers and allowing them to extend neurites. Cold SATO culture medium was supplemented with 10 μg/ml penetratin, fSLPI, or SLPI11-25 and added to the wells containing the neurons. The slides were then covered and incubated at 4° C. for 4 hours. Cells were then fixed and immunostained for βIII tubulin as described."}, "[4]": {"test_system": "DRG neurons", "assay": "Internalization of fluorescein-labeled SLPI/peptides by DRG neurons at 37° C. (fluorescence microscopy)", "assay_type": "cell-based", "settings": "for internalization / presence in nuclei of DRG neurons: P6 DRG neurons, 5 μg/ml, 15 minutes", "description": "To visualize internalization of SLPI in living cells, SLPI was labeled with fluorescein using a Fluorescein-EX protein labeling kit (Molecular Probes). The labeling reaction was performed following the protocol provided by the manufacturer. P5 DRG neurons were isolated (Mukhopadhyay et al., 1994; DeBellard et al., 1996; Cai et al., 1999; supra) and treated with either 10 μg/ml of fluorescein-labeled SLPI (fSLPI) or unconjugated fluorescein in SATO culture medium. Cells were then plated in 8 well chamber slides coated with 100 μg/ml poly-D-lysine (PDL) and incubated for 1 hour at 37° C. Cells were then fixed with 4% paraformaldehyde and immunostained using a monoclonal antibody to the neuronal marker βIII tubulin (1:1000 dilution, Covance). After an overnight incubation at 4° C., the cells were rinse and incubated successively with biotinylated anti-mouse antibody (1:500 dilution, Amersham) and Texas Red-conjugated streptavidin (1:300 dilution, Amersham). Slides were then coverslipped and viewed using an upright fluorescence microscope.\nTo further characterize SLPI internalization into living cells, P5 DRG neurons in SATO culture medium were treated with unconjugated fluorescein, 1 μg/ml fSLPI, or 10 μg/ml fSLPI and plated onto PDL-coated slides for 5 minutes at 37° C. Cells were then fixed and immunostained for βIII tubulin as described.\nThe transduction characteristics of a SLPI-derived PTD comprising amino acids 11-25 of human SLPI (SLPI11-25) were compared to those of the SLPI protein. SLPI11-25 and penetratin were custom synthesized and labeled with fluorescein at the C-terminus by Invitrogen. P6 DRG neurons were isolated and treated with unconjugated fluorescein, 5 μg/ml fSLPI, 5 μg/ml SLPI11-25, or 5 μg/ml penetratin in SATO culture medium. Cells were plated onto PDL-coated slides and incubated for 15 minutes at 37° C. Cells were then fixed and immunostained for βIII tubulin as described."}, "[5]": {"assay": "Blood brain barrier crossing after intraperitoneal injection", "assay_type": "in vivo, 129SI/SV1MJ mice", "settings": "mice, intraperitoneal 100 μg", "description": "To assess whether SLPI crosses the blood brain barrier, adult 129SI/SV1MJ mice received intraperitoneal injections of 100 μg fSLPI in sterile PBS or unconjugated fluorescein (500 μl total volume). Mice were sacrificed by transcardial perfusion with 4% paraformaldehyde after 4 and 8 hours. The brains and cervical spinal cords were dissected out and prepared for sectioning as described. Tissues were sectioned coronally at 30 μm and slides were coverslipped as described. […] This may be an inherent property of SLPI or may be secondary to its observed efficient cellular internalization which may in turn prevent SLPI from ever reaching the CNS in high enough concentrations to be detected.\nTo assess whether SLPI11-25 crosses the blood brain barrier, 129SI/SV1MJ mice received intraperitoneal injections of 100 μg SLPI11-25 or penetratin in sterile PBS ([…]). Mice were sacrificed after 1 and 4 hours, and the brains and cervical spinal cords were prepared for sectioning as described. Tissues were sectioned coronally at 30 μm and slides were coverslipped as described. […] This may be an inherent property of SLPI-derived PTDs, or may be secondary to its observed efficient cellular internalization, which may in turn prevent the SLPI-derived PTD from ever reaching the CNS in high enough concentrations to be detected."}, "[6]": {"test_system": "DRG neurons", "assay": "Internalization at 4° C. by DRG neurons plated on CHO cell monolayers", "assay_type": "cell-based", "settings": "P6 DRG neurons, 10 μg/ml, 4 hours", "description": "as §1"}, "[7]": {"test_system": "cerebellar neurons", "assay": "Western blot of cytoplasmic and nuclear fractions of treated cerebellar neurons", "assay_type": "cell-based, rats", "settings": "0, 1, 5, and 10 μg/ml, 1 hour, 37° C.", "description": "FIG. 1: Western blot analysis of cytoplasmic and nuclear fractions from cerebellar neurons treated with 0, 1, 5, and 10 μg/ml SLPI for 1 hour. Higher levels of SLPI are observed in both cytoplasmic and nuclear fractions with increasing concentrations of SLPI. Phospho-CREB is used as a nuclear marker and actin is used as a loading control. See Example 1.\nTo characterize the transduction abilities of the SLPI protein, cerebellar neurons were isolated from postnatal day 6 (P6) rats (Mukhopadhyay et al., Neuron 13:757-767 (1994); DeBellard et al., Mol. Cell. Neurosci. 7:89-101 (1996); Cai et al., Neuron 22:89-101 (1999)) and treated with 0, 1, 5, and 10 μg/ml recombinant human SLPI (R&D Systems) in SATO culture medium (Doherty et al., Neuron 5:209-219 (1990); Nature 343:464-466 (1990)). Cells were incubated at 37° C. for 1 hour, and cytoplasmic and nuclear fractions were prepared using NE-PER cytoplasmic and nuclear extraction reagents (Pierce). Protein samples were subjected to SDS-PAGE using 15% SDS polyacrylamide gels and transferred to nitrocellulose. SLPI was detected using a polyclonal antibody to recombinant human SLPI (R&D Systems). […] The nuclear localization of SLPI was then confirmed by reprobing the membrane for a well-known nuclear marker: phosphorylated cyclic AMP response element binding protein (pCREB; Cell Signaling). […]"}}, "note": "Ends that are not written are not given here.", "data": [{"molecule": "O=C1OC2(c3ccc(O)cc3Oc3cc(O)ccc32)c2ccccc21", "note": "[fluorescein]", "values": [{"measurement": "presence in the retinal ganglion cell layer of the retina", "setting": "[1]", "result": "no signal is observed"}, {"measurement": "presence in the retinal ganglion cell layer of the retina", "setting": "[2]", "result": "no signal was observed"}]}, {"molecule": "SLPI11-25: SLPI-derived PTD, amino acids 11-25 of human SLPI (PPKKSAQCLRYKKPE, SEQ ID NO: 2), labeled with fluorescein at the C-terminus (PPKKSAQCLRYKKPE-fluorescein; listed as Homo sapiens)", "values": [{"measurement": "present in the underlying CHO cell monolayer", "setting": "[3]", "result": "not"}, {"measurement": "internalization / presence in nuclei of DRG neurons", "setting": "[4]", "result": "present in the nuclei of DRG neurons"}, {"measurement": "observed in the brain and spinal cord", "setting": "[5]; 1 and 4 hours", "result": "No SLPI11-25 was observed in the brain and spinal cord at either time point"}, {"measurement": "nuclear localization at the restrictive temperature", "setting": "[6]", "result": "still occurred at the restrictive temperature"}]}, {"molecule": "B1", "values": [{"measurement": "SLPI in cytoplasmic and nuclear fractions", "setting": "[7]", "result": "present in increasing amounts in both the cytoplasmic and nuclear fractions"}]}, {"molecule": "B2", "values": [{"measurement": "present in the underlying CHO cell monolayer", "setting": "[3]", "result": "not"}, {"measurement": "internalization into nuclei", "setting": "[4]; P5 DRG neurons, 1 μg/ml or 10 μg/ml, 5 minutes", "result": "internalized into nuclei within 5 minutes in a dose-dependent manner"}, {"measurement": "internalization / presence in nuclei of neurons", "setting": "[4]; P5 DRG neurons, 10 μg/ml, 1 hour", "result": "clearly present in the nuclei of neurons"}, {"measurement": "internalization / presence in nuclei of DRG neurons", "setting": "[4]", "result": "present in the nuclei of DRG neurons"}, {"measurement": "observed in the brain and spinal cord", "setting": "[5]; 4 and 8 hours", "result": "No fSLPI was observed in the brain and spinal cord at either time point"}, {"measurement": "nuclear localization at the restrictive temperature", "setting": "[6]", "result": "still occurred at the restrictive temperature"}]}]}
